Key:
HLA-C*05:01 = assay: IEDB peptide-MHC binding, purified MHC/direct/fluorescence; filed as Kd, often an IC50 or EC50 that approximates it; ≥ and ≤ were set here for values at or beyond the usual limits of such assays
HLA-A*02:01 [1] = assay: IEDB peptide-MHC binding, purified MHC/competitive/fluorescence; filed as Kd, often an IC50 or EC50 that approximates it; ≥ and ≤ were set here for values at or beyond the usual limits of such assays
HLA-A*02:03 [2] = assay: IEDB peptide-MHC binding, purified MHC/competitive/radioactivity; filed as Kd, often an IC50 or EC50 that approximates it; ≥ and ≤ were set here for values at or beyond the usual limits of such assays
HLA-A*02:02 = assay: as above; settings: source organism: Vaccinia virus Copenhagen
HLA-A*02:06 = assay: as above
HLA-A*02:17 = assay: as above
HLA-A*02:01 [3] = assay: as above
HLA-B*08:01 [4] = assay: as above; settings: source organism: Dengue virus 1 Brazil/97-11/1997
HLA-B*57:01 [5] = assay: IEDB peptide-MHC binding, purified MHC/competitive/fluorescence; filed as Kd, often an IC50 or EC50 that approximates it; ≥ and ≤ were set here for values at or beyond the usual limits of such assays
HLA-B*15:17 [6] = assay: as above; settings: source organism: Influenza A virus (A/swine/Italy/1513-1/1998(H1N1))
HLA-A*26:01 [7] = assay: as above
HLA-B*46:01 [8] = assay: as above
HLA-A*31:01 [9] = assay: as above; settings: source organism: Influenza A virus (A/swine/Italy/1513-1/1998(H1N1))
HLA-A*02:03 [10] = assay: as above; settings: source organism: Influenza A virus (A/swine/Italy/1513-1/1998(H1N1))
HLA-B*18:01 [11] = assay: as above
HLA-B*27:03 = assay: as above
HLA-A*02:19 = assay: as above
HLA-B*39:01 = assay: as above
HLA-B*51:01 = assay: as above
HLA-A*68:02 [12] = assay: as above; settings: source organism: Influenza A virus (A/swine/Italy/1513-1/1998(H1N1))
HLA-A*02:12 = assay: as above
HLA-B*15:01 [13] = assay: as above
HLA-A*24:03 = assay: as above
HLA-A*69:01 [14] = assay: as above; settings: source organism: Influenza A virus (A/swine/Italy/1513-1/1998(H1N1))
HLA-B*57:01 [15] = assay: IEDB peptide-MHC binding, purified MHC/direct/fluorescence; filed as Kd, often an IC50 or EC50 that approximates it; ≥ and ≤ were set here for values at or beyond the usual limits of such assays; settings: source organism: Marburg virus - Musoke, Kenya, 1980
HLA-B*15:17 [16] = assay: as above; settings: source organism: Marburg virus - Musoke, Kenya, 1980
HLA-A*02:01 [17] = assay: as above; settings: source organism: Marburg virus - Musoke, Kenya, 1980
HLA-B*27:05 = assay: as above; settings: source organism: Marburg virus - Musoke, Kenya, 1980
HLA-B*58:01 = assay: as above; settings: source organism: Marburg virus - Musoke, Kenya, 1980
HLA-A*26:01 [18] = assay: as above; settings: source organism: Ravn virus - Ravn, Kenya, 1987
HLA-B*46:01 [19] = assay: as above; settings: source organism: Marburg virus - Musoke, Kenya, 1980
HLA-A*26:02 = assay: as above; settings: source organism: Ravn virus - Ravn, Kenya, 1987
HLA-A*31:01 [20] = assay: as above; settings: source organism: Marburg virus - Musoke, Kenya, 1980
HLA-B*48:01 = assay: as above; settings: source organism: Marburg virus - Musoke, Kenya, 1980
HLA-B*18:01 [21] = assay: as above; settings: source organism: Marburg virus - Musoke, Kenya, 1980
HLA-B*08:03 = assay: as above; settings: source organism: Ravn virus - Ravn, Kenya, 1987
HLA-A*68:02 [22] = assay: as above; settings: source organism: Marburg virus - Musoke, Kenya, 1980
HLA-B*15:01 [23] = assay: as above; settings: source organism: Marburg virus - Musoke, Kenya, 1980
HLA-A*03:01 [24] = assay: as above; settings: source organism: Marburg virus - Musoke, Kenya, 1980
HLA-B*07:02 = assay: as above; settings: source organism: Marburg virus - Musoke, Kenya, 1980
HLA-A*11:01 = assay: as above; settings: source organism: Marburg virus - Musoke, Kenya, 1980
HLA-B*08:01 [25] = assay: as above; settings: source organism: Ravn virus - Ravn, Kenya, 1987
HLA-A*01:01 = assay: as above; settings: source organism: Marburg virus - Musoke, Kenya, 1980
HLA-A*69:01 [26] = assay: as above; settings: source organism: Marburg virus - Musoke, Kenya, 1980
HLA-B*40:01 = assay: as above; settings: source organism: Marburg virus - Musoke, Kenya, 1980
HLA-A*29:02 = assay: IEDB peptide-MHC binding, purified MHC/competitive/fluorescence; filed as Kd, often an IC50 or EC50 that approximates it; ≥ and ≤ were set here for values at or beyond the usual limits of such assays; settings: source organism: Vibrio parahaemolyticus K5030
HLA-A*02:11 = assay: as above; settings: source organism: Vibrio parahaemolyticus K5030
HLA-A*03:01 [27] = assay: as above; settings: source organism: Vibrio parahaemolyticus K5030
[28] = source organism: Vaccinia virus Copenhagen
[29] = source organism: Dengue virus 4 Philippines/H241/1956
[30] = source organism: Dengue virus 1 Singapore/S275/1990
[31] = source organism: Influenza A virus (A/swine/Italy/1513-1/1998(H1N1))
[32] = source organism: Vibrio parahaemolyticus K5030

## FPSVFINPI
HLA-C*05:01; [28]
  Kd: ≥ 20 µM

## FVDTMSIYI
HLA-A*02:01 [1]; source organism: Variola virus
  Kd: 0.0004 µM
HLA-C*05:01; source organism: Variola virus
  Kd: 0.002 µM
HLA-A*02:03 [2]; [28]
  Kd: 0.37 µM
HLA-A*02:02
  Kd: 0.0207 µM
HLA-A*02:06; [28]
  Kd: 0.0161 µM

## GLYPLAIPV
HLA-A*02:17; [29]
  Kd: 0.0538 µM
HLA-A*02:01 [3]; [29]
  Kd: 0.00106 µM
HLA-A*02:03 [2]; [29]
  Kd: 0.00042 µM
HLA-A*02:06; [29]
  Kd: 0.125 µM

## ILLMLVTPSM
HLA-A*02:17; [30]
  Kd: 1.11 µM
HLA-A*02:01 [3]; [30]
  Kd: 0.102 µM
HLA-B*08:01 [4]
  Kd: 0.16 µM

## MMWEINGPK
HLA-B*57:01 [5]; [31]
  Kd: ≥ 20 µM
HLA-B*15:17 [6]
  Kd: ≥ 20 µM
HLA-A*26:01 [7]; [31]
  Kd: ≥ 20 µM
HLA-B*46:01 [8]; [31]
  Kd: ≥ 20 µM
HLA-A*31:01 [9]
  Kd: 0.0751 µM
HLA-A*02:03 [10]
  Kd: ≥ 20 µM
HLA-B*18:01 [11]; [31]
  Kd: ≥ 20 µM
HLA-B*27:03; [31]
  Kd: ≥ 20 µM
HLA-A*02:19; [31]
  Kd: ≥ 20 µM
HLA-B*39:01; [31]
  Kd: ≥ 20 µM
HLA-B*51:01; [31]
  Kd: ≥ 20 µM
HLA-A*68:02 [12]
  Kd: ≥ 20 µM
HLA-A*02:12; [31]
  Kd: ≥ 20 µM
HLA-B*15:01 [13]; [31]
  Kd: ≥ 20 µM
HLA-A*24:03; [31]
  Kd: ≥ 20 µM
HLA-A*69:01 [14]
  Kd: ≥ 20 µM

## QVGIFLICK
HLA-B*57:01 [15]
  Kd: ≥ 20 µM
HLA-B*15:17 [16]
  Kd: ≥ 20 µM
HLA-A*02:01 [17]
  Kd: ≥ 20 µM
HLA-B*27:05
  Kd: ≥ 20 µM
HLA-B*58:01
  Kd: ≥ 20 µM
HLA-A*26:01 [18]
  Kd: ≥ 20 µM
HLA-B*46:01 [19]
  Kd: ≥ 20 µM
HLA-A*26:02
  Kd: ≥ 20 µM
HLA-A*31:01 [20]
  Kd: ≥ 20 µM
HLA-B*48:01
  Kd: ≥ 20 µM
HLA-B*18:01 [21]
  Kd: ≥ 20 µM
HLA-B*08:03
  Kd: ≥ 20 µM
HLA-A*68:02 [22]
  Kd: ≥ 20 µM
HLA-B*15:01 [23]
  Kd: ≥ 20 µM
HLA-A*03:01 [24]
  Kd: ≥ 20 µM
HLA-B*07:02
  Kd: ≥ 20 µM
HLA-A*11:01
  Kd: 2.8 µM
HLA-B*08:01 [25]
  Kd: ≥ 20 µM
HLA-A*01:01
  Kd: ≥ 20 µM
HLA-A*69:01 [26]
  Kd: ≥ 20 µM
HLA-B*40:01
  Kd: ≥ 20 µM

## WLGDVWQEK
HLA-B*57:01 [5]; [32]
  Kd: ≥ 20 µM
HLA-A*02:01 [1]; [32]
  Kd: ≥ 20 µM
HLA-A*29:02
  Kd: ≥ 20 µM
HLA-A*26:01 [7]; [32]
  Kd: ≥ 20 µM
HLA-B*46:01 [8]; [32]
  Kd: ≥ 20 µM
HLA-B*18:01 [11]; [32]
  Kd: ≥ 20 µM
HLA-A*02:11
  Kd: 0.0251 µM
HLA-B*27:03; [32]
  Kd: ≥ 20 µM
HLA-A*02:19; [32]
  Kd: ≥ 20 µM
HLA-B*39:01; [32]
  Kd: ≥ 20 µM
HLA-B*51:01; [32]
  Kd: ≥ 20 µM
HLA-A*02:12; [32]
  Kd: ≥ 20 µM
HLA-B*15:01 [13]; [32]
  Kd: ≥ 20 µM
HLA-A*24:03; [32]
  Kd: ≥ 20 µM
HLA-A*03:01 [27]
  Kd: ≥ 20 µM
